Results published in patent US20190248902A1 (published 2019).

T1: Mouse ASGR-1 (mouse, UniProt P34927 1-284)
T1 construct: Expressed on HEK 293 cells or as membrane prep on beads; cDNA GenBank BC022106.1; also called muASGR-1; mASGR-1
T1 sequence: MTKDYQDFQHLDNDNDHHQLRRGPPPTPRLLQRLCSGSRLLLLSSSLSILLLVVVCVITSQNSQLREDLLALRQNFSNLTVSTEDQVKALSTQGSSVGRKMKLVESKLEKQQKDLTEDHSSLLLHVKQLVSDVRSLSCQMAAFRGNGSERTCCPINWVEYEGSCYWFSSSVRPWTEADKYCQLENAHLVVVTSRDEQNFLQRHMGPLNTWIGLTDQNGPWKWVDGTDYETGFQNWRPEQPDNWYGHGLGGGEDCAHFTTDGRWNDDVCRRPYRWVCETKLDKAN

T2: Pig ASGR-1 (pig)
T2 construct: Expressed on HEK 293 cells or as membrane prep on beads; cDNA GenBank NM_001244458
T2 chain: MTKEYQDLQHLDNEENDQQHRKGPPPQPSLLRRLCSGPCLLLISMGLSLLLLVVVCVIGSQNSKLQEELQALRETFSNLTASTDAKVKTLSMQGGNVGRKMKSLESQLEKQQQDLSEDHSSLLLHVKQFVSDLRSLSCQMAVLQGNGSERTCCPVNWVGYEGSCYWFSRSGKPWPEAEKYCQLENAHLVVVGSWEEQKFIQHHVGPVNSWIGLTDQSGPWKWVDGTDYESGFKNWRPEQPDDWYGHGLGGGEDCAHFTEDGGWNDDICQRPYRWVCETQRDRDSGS

T3: Cyno ASGR-1 (cynomolgus monkey, UniProt P07306 1-291 (human entry))
T3 construct: Expressed on HEK 293 cells or as membrane prep on beads; cDNA from XP_005582755; also called cynomologus monkey ASGR-1
T3 chain: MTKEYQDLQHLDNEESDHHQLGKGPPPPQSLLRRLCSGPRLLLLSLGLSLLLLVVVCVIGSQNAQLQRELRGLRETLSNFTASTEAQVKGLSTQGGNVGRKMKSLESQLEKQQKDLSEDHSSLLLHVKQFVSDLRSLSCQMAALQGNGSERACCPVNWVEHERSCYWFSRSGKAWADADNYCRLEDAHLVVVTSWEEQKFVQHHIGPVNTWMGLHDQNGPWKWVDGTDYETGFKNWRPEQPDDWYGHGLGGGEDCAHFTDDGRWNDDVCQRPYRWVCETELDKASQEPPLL


Legend:
[1] = molecular target: T1, Mouse ASGR-1; experiment: FACS on transfected HEK 293 cells or membrane preps on beads; binding = signal at least 2x irrelevant IgG
Method in brief: (§1)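 Antibodies at normalized concentrations bound 1 h at 4° C to HEK 293 cells expressing each antigen, then Alexa Fluor 647 anti-Fc plus 7-AAD 15 min at 4° C, flow cytometry; empty-vector cells as negative. Alternatively, species ASGR-1 membrane preps on streptavidin beads, antibody 1 h RT, Alexa Fluor 488 anti-Fc; FACS buffer with 1 mM CaCl2 throughout.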

[2] = molecular target: T2, Pig ASGR-1; experiment: FACS on transfected HEK 293 cells or membrane preps on beads; Y = signal at least 2x irrelevant IgG
Method in brief: as §1

[3] = molecular target: T3, Cyno ASGR-1; experiment: as above
Method in brief: as §1

binding result [1]	binding result [2]	binding result [3]	Binder
no binding	binds	binds	25A4 (antibody, V domains shown, Tested as hybridoma supernatant at normalized concentration) VH: QVLLVQSGAEVKRPGASVKVSCKASGYTFTNYDINWVRQATGQGLEWMGWMYPNSGNTGYAQKFQGRVTMTRNTSISTAYMELSSLRSEDTAVYYCASSSGWYYFDYWGQGTLVTVSS VL: DIVMTQFPDSLAVSLGERATIKCKSSQSVLYSSHNNNYLAWYQQKPGQPPKLLLYWASTRESGVPDRFSGSGSGTEFTLTISSLEAEDVAVYYCQQYYSTPPTFGQGTKVEIK
no binding	binds	binds	26C4 (antibody, V domains shown, Tested as hybridoma supernatant at normalized concentration) VH: QVQLVQSGAEVKKPGASVKVSCKASGYTFTNYDINWVRQASGQGLEWMGWMNPNSGNTGYAQRFQGRVTMTRNTSINTAYMELSSLRSEDTAVYYCASSSGWYYFDYWGQGTLVTVSS VL: not shown
no binding	binds	binds	4A2 (antibody, V domains shown, Tested as hybridoma supernatant at normalized concentration) VH: QVQLVQSGTEVKKPGASVKVSCKASGYTFTNYDINWVRQATGQGLEWMGWMHPNSGNTGYAQKFQGRVTLTRNTSISTAYMELSSLRSEDTAVYYCASSSGWYYFDYWGQGTLVTVSS VL: DIVMTQSPDSLAVSLGERATINCKSSQSILHSSNNNNYLAWFQQKPGQPPKLLLYWASTRESGVPDRFSGSGSGTDFTLTISSLQPEDVAVYYCQQYYNTPVTFGPGTKVGIK
no binding	binds	binds	29H8 (antibody, V domains shown, Tested as hybridoma supernatant at normalized concentration) VH: QVQLVQSGAEVQKPGASVKVSCKASGYTFTNYDINWVRQATGQGLEWMGWMNPNSGNTGYAQRFQGRVTMTRNTSISAAYMELSSLRSEDTAVYYCASSSGWYYFDYWGQGTLVTVSS VL: not shown
no binding	binds	binds	194A4 (antibody, V domains shown, Tested as hybridoma supernatant at normalized concentration) VH: QVQLVQSGTEVKKPGASLKVSCKASGYTFTVYYLNWVRQAPGQGLEWMGWINPNSGGTNYAQKFQGRVTMTRDTSISTAYMELSRLRSDDTAVYYCARGYDILTGWGQGTLVTVSS VL: EIVLTQSPGTLSLSPGERATLSCRASRGVSNIYLAWYQQKPGQAPRLLIYGASNRATGIPDRFSGSGSGTDFTLTISRLEPEDFAVYYCQHNDYSMFTFGPGTKVDIK
no binding	binds	binds	48B12 (antibody, V domains shown, Tested as hybridoma supernatant at normalized concentration) VH: EVQLLESGGGLVQPGGSLRLSCAASGFTFSSYAMNWVRQAPGKGLEWVSAISGRGGNTFYADSVKGRFTISRDNSKNTLYLQMNSLRAEDTAVYYCAKRETYNWNYEGFDYWGQGTLVTVSS VL: SYELTQPPSVSVSPGQTARITCSGDALPKKYAYWYQQKSGQAPVLVIYEDSKRPSGIPERFSGSSSGTMATLTISGAQVEDEADYYCNSTDSSGNHVVFGGGTKLTVL
no binding	binds	binds	194C10 (antibody, V domains shown, Tested as hybridoma supernatant at normalized concentration) VH: QVQLQQWGAGLLKPSETLSLTCAVSGGSFRYYYWSWIRQPPGKGLEWFGEINHSGSTNYNPSLKSRVTISIDTSKNQFSLKLRSVTAADTAVYYCARDYGAFDIWGQGTMVTVSS VL: EIVLTQSPGTLSLSPGERATLSCRASPSVNSGYLAWYQQKPGQTPRLLIFGASSRATGIPDRFSASGSGADFTLTISRLEPEDFAVYFCQQYESSPWTFGQGTKVEIK
no binding	binds	binds	56E5 (antibody, V domains shown, Tested as hybridoma supernatant at normalized concentration) VH: QVQLVQSGAEVKKPGASVKVSCQASGYTFTGYHMHWVRQAPGQGLEWMGWINPNNNATNYAQKFQGRVTMTRDTSISTAYMELRRLRSDDTAVYHCARDGTSSFDYWGQGTLVTVSS VL: DIQMTQSPSSVSASVGDRVTITCRASQGIRKWLAWYQQKPGKAPKLLIYAASSLQSGVPSRFSGSGSGTDFTLTISSLQPEDFATYYCQQANSFPFTFGPGTKVDIK
